This note sets out measurements from PMC2649980 (Proteins, 2009).

This series deals with the molecule itself. Put plainly: SEC.

B1: D355R TRβ LBD (human thyroid hormone receptor beta ligand binding domain, a.a. 209-461, D355R), TRIAC-bound (domain or fragment, UniProt P10828 209-461, looked up)
chain: GHKPEPTDEEWELIKTVTEAHVATNAQGSHWKQKRKFLPEDIGQAPIVNAPEGGKVDLEAFSHFTKIITPAITRVVDFAKKLPMFCELPCEDQIILLKGCCMEIMSLRAAVRYDPESETLTLNGEMAVTRGQLKNGGLGVVSDAIFRLGMSLSSFNLDDTEVALLQAVLLMSSDRPGLACVERIEKYQDSFLLAFEHYINYRKHHVTHFWPKLLMKVTDLRMIGACHASRFLHMKVECPTELFPPLFLEVFED
For B1, the “stoichiometry N” value came out at 2.
